# Source: PMC11022410, “Synthesis and characterization of water-soluble C60–peptide conjugates” (Beilstein Journal of Organic Chemistry, 2024)
# Key:
# [1] = format: physicochemical; settings: for Solubility in Milli-Q water (pH 7.0): from lyophilized solid, Milli-Q water pH 7.0, visual (transparent solution), also with sonication, 5b purified, 5c crude; for Solubilizing solvents (Table S1): list of the solvents used to solubilize the molecules; for Solubility in acidic eluent used for HRESIMS: mixture of MeOH and water containing 0.1% formic acid
# Experimental: The water solubility of C60–peptide conjugates 5a–c was tested after the removal of any remaining solvent traces by lyophilization. […]
# Solubility of C60–oligopeptides 5a–c
# Table S1. List of the solubilizing solvents for compounds 5a-5c. […]
# [2] = Photoinduced 1O2 generation by ESR spin trapping with 4-oxo-TEMP; settings: green LED 527 nm, 1 min or 10 min; PS 40 μM, 4-oxo-TEMP 80 mM, 60 mM phosphate buffer pH 7.0, O2-bubbled, 296 K
# Experimental: To preliminarily evaluate the synthesized C60–oligo-Lys (5a) as a PS, generation of singlet oxygen was measured by the ESR spin trapping method under irradiation of visible light (527 nm green LED). 4-Oxo-TEMP was used as a spin trapping reagent to form an adduct with ^1O2, i.e., 4-oxo-TEMPO, which was observed by ESR (Figure 7b).
# Figure 7 a) X-band ESR spectra of the 4-oxo-TEMP adduct with ^1O2 generated by C60–oligo-Lys (5a) and rose bengal (RB), respectively, in aqueous solutions under irradiation with a green LED lamp (527 nm) for 1 min or 10 min. PS: 40 μM, 4-oxo-TEMP: 80 mM, in 60 mM phosphate buffer (pH 7.0). Measurement conditions: temperature 296 K, microwave frequency 10.03 GHz, microwave power 10 mW, receiver gain 5.0 × 10^4, modulation amplitude 1.00 G, modulation frequency 100 KHz, sweep time 83.89 s, number of scans: 1. b) Scheme for the photoinduced ^1O2 generation by C60 and reaction with spin trapping reagent 4-oxo-TEMP to form 4-oxo-TEMPO.
# Detection of photoinduced 1O2 generation by ESR spin trapping
# ESR measurements were carried out on a Bruker spectrometer equipped with a microwave bridge X-band ER. […]
# 1O2 generation was detected through the 1O2 adduct of 4-oxo-TEMP generated in an aqueous solution of C60−oligo-Lys (5a) and rose bengal as reference under irradiation by a green LED (527 nm). […]
Structure (SMILES),Solubility in Milli-Q water (pH 7.0) [1],Solubilizing solvents (Table S1) [1],"Solubility in nonpolar solvents ([1]; most nonpolar solvents, including toluene and CH2Cl2)","Solubility in other polar solvents ([1]; other polar solvents, including MeOH and DMSO)",Solubility in acidic eluent used for HRESIMS [1],Solubility in polar and nonpolar solvents ([1]; most polar and nonpolar solvents),Solubility over the tested pH value range ([1]; tested pH value range 4.0–9.2),1O2 generation under visible light irradiation (ESR signal of 4-oxo-TEMPO) [2]
"NCCCC[C@H](NC(=O)[C@H](CCCCN)NC(=O)[C@H](CCCCN)NC(=O)[C@H](CCCCN)NC(=O)[C@H](CCCCN)NC(=O)CCCNC(=O)CC(CC(=O)NCCCC(=O)N[C@@H](CCCCN)C(=O)N[C@@H](CCCCN)C(=O)N[C@@H](CCCCN)C(=O)N[C@@H](CCCCN)C(=O)N[C@@H](CCCCN)C(=O)O)N1CC23c4c5c6c7c8c9c(c%10c%11c2c2c4c4c%12c5c5c6c6c8c8c%13c9c9c%10c%10c%11c%11c2c2c4c4c%12c%12c5c5c6c8c6c8c%13c9c9c%10c%10c%11c2c2c4c4c%12c5c6c5c8c9c%10c2c45)C73C1)C(=O)O (stereo partly shown) [5a, C60–oligo-Lys]",immediately and thoroughly solubilized,"water (pH 4.0–9.2), MeOH, DMSO",not highly soluble,slightly soluble,,,,
"N=C(N)NCCC[C@H](NC(=O)[C@H](CCCNC(=N)N)NC(=O)[C@H](CCCNC(=N)N)NC(=O)[C@H](CCCNC(=N)N)NC(=O)[C@H](CCCNC(=N)N)NC(=O)CCCNC(=O)CC(CC(=O)NCCCC(=O)N[C@@H](CCCNC(=N)N)C(=O)N[C@@H](CCCNC(=N)N)C(=O)N[C@@H](CCCNC(=N)N)C(=O)N[C@@H](CCCNC(=N)N)C(=O)N[C@@H](CCCNC(=N)N)C(=O)O)N1CC23c4c5c6c7c8c9c(c%10c%11c2c2c4c4c%12c5c5c6c6c8c8c%13c9c9c%10c%10c%11c%11c2c2c4c4c%12c%12c5c5c6c8c6c8c%13c9c9c%10c%10c%11c2c2c4c4c%12c5c6c5c8c9c%10c2c45)C73C1)C(=O)O (stereo partly shown) [5c, C60–oligo-Arg]",did not produce transparent solutions,insoluble in most solvents,,,slightly soluble,not soluble in most polar and nonpolar solvents,remained insoluble,
O=C([O-])c1c(Cl)c(Cl)c(Cl)c(Cl)c1-c1c2cc(I)c(=O)c(I)c-2oc2c(I)c([O-])c(I)cc12.[Na+].[Na+] [rose bengal],,,,,,,,three peaks corresponding to 4-oxo-TEMPO were observed
"O=C(O)CC[C@H](NC(=O)[C@H](CCC(=O)O)NC(=O)[C@H](CCC(=O)O)NC(=O)[C@H](CCC(=O)O)NC(=O)[C@H](CCC(=O)O)NC(=O)CCCNC(=O)CC(CC(=O)NCCCC(=O)N[C@@H](CCC(=O)O)C(=O)N[C@@H](CCC(=O)O)C(=O)N[C@@H](CCC(=O)O)C(=O)N[C@@H](CCC(=O)O)C(=O)N[C@@H](CCC(=O)O)C(=O)O)N1CC23c4c5c6c7c8c9c(c%10c%11c2c2c4c4c%12c5c5c6c6c8c8c%13c9c9c%10c%10c%11c%11c2c2c4c4c%12c%12c5c5c6c8c6c8c%13c9c9c%10c%10c%11c2c2c4c4c%12c5c6c5c8c9c%10c2c45)C73C1)C(=O)O (stereo partly shown) [5b, C60–oligo-Glu]",did not produce transparent solutions,"25 mM TRIS buffer (pH > 8.3), 2% NaOD in D2O (pH 13.7)",,,insolubility,,,
